Target: And-1 HMG domain (UniProt O75717)
Assay: FLAG-SepB IP, GST-HMG blot
Settings: reference: wild-type SepB; sites T826

UniProt O75717, sequence (O75717 330-984 T826A): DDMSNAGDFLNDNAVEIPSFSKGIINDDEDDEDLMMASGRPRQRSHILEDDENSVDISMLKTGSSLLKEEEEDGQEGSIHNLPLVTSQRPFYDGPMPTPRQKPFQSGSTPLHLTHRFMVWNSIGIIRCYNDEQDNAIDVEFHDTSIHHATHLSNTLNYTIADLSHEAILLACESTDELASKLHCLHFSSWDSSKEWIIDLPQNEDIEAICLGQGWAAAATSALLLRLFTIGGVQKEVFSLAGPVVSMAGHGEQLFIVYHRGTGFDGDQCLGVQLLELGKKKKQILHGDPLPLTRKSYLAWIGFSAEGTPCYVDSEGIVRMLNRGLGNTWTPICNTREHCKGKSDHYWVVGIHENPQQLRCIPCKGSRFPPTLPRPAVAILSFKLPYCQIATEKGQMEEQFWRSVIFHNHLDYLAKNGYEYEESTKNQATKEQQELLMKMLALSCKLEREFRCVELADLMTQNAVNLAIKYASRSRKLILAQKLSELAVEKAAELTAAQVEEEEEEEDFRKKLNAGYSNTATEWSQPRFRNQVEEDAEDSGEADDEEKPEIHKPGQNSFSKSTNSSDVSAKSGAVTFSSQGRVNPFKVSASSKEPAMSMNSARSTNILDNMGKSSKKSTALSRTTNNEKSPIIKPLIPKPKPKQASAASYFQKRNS

binding against the reference: stronger
Substance: And-1 SepB domain, 330-984 (from UniProt O75717) SepB T826A
